Reference: patent publication US11807887B2, “Compositions and methods related to nucleic acid synthesis” (Nuclera Ltd., priority 2015, dated 2023)

Columns and labels:
Assay type in all cases: biochemical
[1] = test system: single-stranded DNA initiator (SEQ ID NO: 7); experiment: Addition of 3′-O-azidomethyl nucleotide triphosphates to a DNA initiator by TdT orthologs, capillary electrophoresis; conditions: for performance in adding 3′-O-azidomethyl dTTP and 3′-O-azidomethyl dCTP compared to Bos taurus TdT: 20 min, capillary electrophoresis; for ability to add 3′-O reversibly terminated (blocked) nucleotide triphosphates: 3′-O-azidomethyl nucleotide triphosphate, FIG. 3
Method: (A) A single-stranded DNA initiator was incubated with TdT with the indicated species for 60 min in the above mentioned buffer and reaction conditions. Reactions were then analysed by capillary electrophoresis and a subset of chromatograms are shown. (B) Fraction of DNA initiator strand converted to N+1 species (addition of 3′-O-azidomethyl dTTP) in one hour. (C) Three TdT orthologs were reacted with 3′-O-azidomethyl dTTP and 3′-O-azidomethyl dCTP for 20 min.
A single-stranded DNA initiator (SEQ ID NO: 7) was incubated with purified, recombinant TdT orthologs, required salts (50 mM potassium acetate, 20 mM tris acetate pH 7.9, 1.5 mM cobalt chloride, Saccharomyces cerevisiae inorganic pyrophosphatase), and 3′-O-azidomethyl dTTP at 37° C. for 60 min. The 3′-blocked nucleotide triphosphate was at a concentration of 1 mM and the DNA initiator at 200 nM and analysed via capillary electrophoresis as shown in FIG. 3(A).
The experiment was repeated with the exception that both 3′-O-azidomethyl dTTP and 3′-O-azidomethyl dCTP was used as the 3′-blocked nucleotide triphosphate. The reaction was stopped after 20 min and analysed via capillary electrophoresis.

[2] = test system: single-stranded DNA initiator (SEQ ID NO: 7); experiment: Engineered Lepisosteus oculatus TdT versus Bos taurus TdT, denaturing PAGE gel; conditions: 3′-O-azidomethyl dTTP, 37° C., 10 min
Method: (§1) A single-stranded DNA initiator (SEQ ID NO: 7) was incubated with a purified, recombinant engineered form of Lepisosteus oculatus TdT, required salts, cobalt chloride, Saccharomyces cerevisiae inorganic pyrophosphatase, and 3′-O-azidomethyl dTTP at 37° C. for 10 min.

[3] = test system: single-stranded DNA initiator (SEQ ID NO: 7); experiment: Engineered versus wild-type Lepisosteus oculatus TdT, addition of 3′-reversibly blocked dNTP measured by PAGE; conditions: 3′-reversibly blocked dCTP, dGTP or dTTP, 1 mM, 37° C., 20 min
Method: Addition of the dNTP was measured by PAGE and the conversion relative to wild-type TdT was plotted.
as §1, with “with either a purified wild-type Lepisosteus oculatus TdT or” for “with”, “TdT (SEQ ID NO: 8),” for “TdT,”, “20” for “10”

B1: Lepisosteus oculatus TdT: terminal deoxynucleotidyl transferase sequence from Lepisosteus oculatus (UniProt: W5MK82) (protein, listed as Lepisosteus oculatus)
chain: MLHIPIFPPIKKRQKLPESRNSCKYEVKFSEVAIFLVERKMGSSRRKFLTNLARSKGFRIEDVLSDAVTHVVAEDNSADELWQWLQNSSLGDLSKIEVLDISWFTECMGAGKPVQVEARHCLVKSCPVIDQYLEPSTVETVSQYACQRRTTMENHNQIFTDAFAILAENAEFNESEGPCLAFMRAASLLKSLPHAISSSKDLEGLPCLGDQTKAVIEDILEYGQCSKVQDVLCDDRYQTIKLFTSVFGVGLKTAEKWYRKGFHSLEEVQADNAIHFTKMQKAGFLYYDDISAAVCKAEAQAIGQIVEETVRLIAPDAIVTLTGGFRRGKECGHDVDFLITTPEMGKEVWLLNRLINRLQNQGILLYYDIVESTFDKTRLPCRKFEAMDHFQKCFAIIKLKKELAAGRVQKDWKAIRVDFVAPPVDNFAFALLGWTGSRQFERDLRRFARHERKMLLDNHALYDKTKKYLKKKTTNNYLALNDVCSDLSEWHYKG
performance in adding 3′-O-azidomethyl dTTP and 3′-O-azidomethyl dCTP compared to Bos taurus TdT [1]: consistently perform better compared to Bos taurus TdT

B2: Sarcophilus harrisii TdT: terminal deoxynucleotidyl transferase sequence from Sarcophilus harrisii (UniProt: G3VQ55) (protein, listed as Sarcophilus harrisii)
chain: MHRIRTTDSDHGKKRQKKMDAISSKLYEIKFHEFVLFILEKKMGATRRTFLMDLARKKGFRVESELSNSVTHIVAENNSGSDVLAWLEAHKLETTAHFELLDVSWLIECMKVGKPVDTKGKYQLVESSIASANPDPNEGMLKIQSPAMNAISPYACQRRTTLNNHNQRFTDAFEILAKNYEFRENHGHCLTFLRATSVLKCLPFAIVSMKDAEGLPWIGDEVKGIMEEIIEDGQSLEVQAVLNDERYQAFKLFTSVFGVGLKTAEKWYRMGFRTLSKIQSDKSLKFTKMQKAGFLYYEDLISCVSKAEADAVSLIVKEAVWTFLPDALITITGGFRRGKEFGHDVDFLITSPGGEKEQVDQLLQKVTNLWEKQGLLLYYDLMESTFEDLKLPSRKVDALDHFQKCFLILKLYCQRGDRSKWEGPEGSNGLQTKNWKAIRVDLVVCPYDRYAYALLGWSGSRQFERDLRRYATHEKKMMLDNHALYDKTKRTFLKAESEEEIFSHLGLEYIEPWERNA
performance in adding 3′-O-azidomethyl dTTP and 3′-O-azidomethyl dCTP compared to Bos taurus TdT [1]: consistently perform better compared to Bos taurus TdT

B3: engineered variant (SEQ ID NO: 8): variant of SEQ ID NO: 2 engineered for improved activity by alteration of the amino acid sequence (protein)
chain: MLHIPIFPPIKKRQKLPESRNSCKYEVKFSEVAIFLVERKMGSSRRKFLTNLARSKGFRIEDVLSDAVTHVVAENNSADELLQWLQNSSLGDLSKIEVLDISWFTECMGAGKPVQVEARHCLVKSCPVIDQYLEPSTVETVSQYACQRRTTMENHNQIFTDAFAILAENAEFNESEGPCLAFMRAASLLKSLPHAISSSKDLEGLPCLGDQTKAVIEDILEYGQCSKVQDVLCDDRYQTIKLFTSVFGVGLRTAEKWYRKGFHSLEEVQADNAIHFTKMQKAGFLYYDDISAAVCKAEAQAIGQIVEETVRLIAPDAIVTLTGGFRRGKECGHDVDFLITTPEMGKEVWLLNRLINRLQNQGILLYYDIVESTFDKTRLPCRKFEAMDHFQKCFAIIKLKKELAAGRVQKDWKAIRVDFVAPPVDNFAFALLGWTGSRQFERDLRRFARHERKMLLDNHALYDKTKKIFLPAKTEEDIFAHLGLDYIDPWQRNA
incorporation of 3′-reversibly blocked nucleotides versus Bos Taurus TdT [2]: much better than Bos Taurus TdT | incorporation of 3′-reversibly blocked nucleotides versus wild-type Lepisosteus oculatus TdT [2]: better than the wild-type Lepisosteus oculatus TdT | conversion of initiator strand of length n to n+1 versus wild-type Lepisosteus oculatus TdT [3]: improved ability to convert the initiator strand of length n to a strand of length n+1

B4: Bos taurus TdT: commercially available terminal deoxynucleotidyl transferase from Bos taurus (UniProt: P06526) (protein, listed as Bos taurus)
chain: MDPLCTASSGPRKKRPRQVGASMASPPHDIKFQNLVLFILEKKMGTTRRNFLMELARRKGFRVENELSDSVTHIVAENNSGSEVLEWLQVQNIRASSQLELLDVSWLIESMGAGKPVEITGKHQLVVRTDYSATPNPGFQKTPPLAVKKISQYACQRKTTLNNYNHIFTDAFEILAENSEFKENEVSYVTFMRAASVLKSLPFTIISMKDTEGIPCLGDKVKCIIEEIIEDGESSEVKAVLNDERYQSFKLFTSVFGVGLKTSEKWFRMGFRSLSKIMSDKTLKFTKMQKAGFLYYEDLVSCVTRAEAEAVGVLVKEAVWAFLPDAFVTMTGGFRRGKKIGHDVDFLITSPGSAEDEEQLLPKVINLWEKKGLLLYYDLVESTFEKFKLPSRQVDTLDHFQKCFLILKLHHQRVDSSKSNQQEGKTWKAIRVDLVMCPYENRAFALLGWTGSRQFERDIRRYATHERKMMLDNHALYDKTKRVFLKAESEEEIFAHLGLDYIEPWERNA
ability to add 3′-O reversibly terminated (blocked) nucleotide triphosphates [1]: only efficiently adds irreversibly blocked nucleotides | ability to add 3′-O reversibly terminated (blocked) nucleotide triphosphates ([1]; listed as recombinant TdT sourced from calf thymus): unable to add 3′-O-terminated nucleotide triphosphates in a quantitative fashion
